Reference: the supplement of paper PMC9170038

System: MS2 coat protein
Assay: apparent KD of MS2 coat protein; designed switch direction (-1 OFF switch, 1 ON switch): -1; higher = weaker reporter binding
In short: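 Transcription of designed RNA switches on Illumina chips was done by stalled E. coli RNA polymerase. SNAP-549-labelled MS2 coat protein was then titrated in doubling steps from 0.7 or 1.5 nM to 3 µM, with steps of 0.8–1.5 h at the lowest and 10–20 min at the highest concentration. The per-design median over clusters of curve-fitted normalised fluorescence is reported as apparent KD.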

[1] = Eterna round: R95, input ligand: microRNA oligo, concentration not stated
[2] = Eterna round: R95, input ligand: FMN 200 uM
[3] = Eterna round: R95, input ligand: none
[4] = input ligand: microRNA oligo, concentration not stated

CGGUGUAGAGGAUAUACGUGGAUGUAAAUUCAUGAUAUUUUACAUGAGGAUCACCCAUGUAGAAGGCUAUAGCG [JR_Ex2_Sub078] (Eterna round: R97, puzzle: Exclusion 2)
apparent KD of MS2 coat protein (input ligand: FMN 200 uM): 74.2 nM
apparent KD of MS2 coat protein (input ligand: none): 229 nM

CCGAAAAGGAAGGAUAUGCUAGACGAAAGUCUAGCAGAAGGUCCUACAUGAGGAUCACCCAUGUGGUCCUUCGG [Mat - Exclusion 6 - Eli Mod - D35] (Eterna round: R97, puzzle: Exclusion 6)
apparent KD of MS2 coat protein (input ligand: FMN 200 uM): 1730 nM
apparent KD of MS2 coat protein (input ligand: none): 448 nM

CAGUACUGAGGAUAUACAUGAGGAUCACCCAUGUGUUCCAGCUAGGAAACUAGCGAAAGUAGAAGGCAGUACUG [salish99_ex3_r3_068] (puzzle: Exclusion 3)
apparent KD of MS2 coat protein [1]: 22.9 nM

GUGAUAUAGUUAGUGGCCUACAUGAGGAUCACCCAUGUGAGGGAAAUGUUGAGGCGAAAGUUGUGUGCUCGUCUGUA [JR_SV3TOV1_Sub039] (puzzle: Sensor v3, turn-off variant 1)
apparent KD of MS2 coat protein [2]: 23.6 nM
apparent KD of MS2 coat protein [1]: 38.9 nM
apparent KD of MS2 coat protein [3]: 26.5 nM

GCAAGCUUUUAGAUUUUCAACAUGAGGAUCACCCAUGUUCGUCUUGUGCUCGGGCUUGGGCGGUGUCCGGGUUUGGG [JL TOV1 3.76 sellena mod] (Eterna round: R97, puzzle: Sensor, turn-off variant 1)
apparent KD of MS2 coat protein (input ligand: FMN 200 uM): 36.2 nM
apparent KD of MS2 coat protein (input ligand: none): 38.3 nM

AGUCGUAGACAGGAUAUGCGGCUAAUAAAUAAAGCAGAAGGGUCUACUUGAGGAUCACCCAAGUGGGCGGUUUA [jl-ex6-4.20 ViennaUCT mod] (Eterna round: R97, puzzle: Exclusion 6)
apparent KD of MS2 coat protein (input ligand: FMN 200 uM): 96.3 nM
apparent KD of MS2 coat protein (input ligand: none): 23.1 nM

UCCUUACUGGUCAGGAUAUACAGUCGCGGGUGGGUGUAGAAGGGACAUGAGGAUCACCCAUGUACGUUACAUCC [alecazam54h] (Eterna round: R97, puzzle: Brourd's mod of Exclusion 4)
apparent KD of MS2 coat protein (input ligand: FMN 200 uM): 19.7 nM
apparent KD of MS2 coat protein (input ligand: none): 19.9 nM

AAAUCCGCUGAGGAUAUUAUCAGUGAGAGCUGAUGAGAAGGCGGUACAUGAGGAUCACCCAUGUCUAUGGGCAA [Ex-6 Malc#25] (puzzle: Exclusion 6)
apparent KD of MS2 coat protein [2]: 358 nM
apparent KD of MS2 coat protein [1]: 208 nM
apparent KD of MS2 coat protein [3]: 295 nM

UAAAAGGAUGUCAGGAUAUGCGCUUGGGAUCAAGAGCAGAAGGGACAUGAGGAUCACCCAUGUAACGGUGCGAA [Oraninus] (puzzle: Brourd's mod of Exclusion 4)
apparent KD of MS2 coat protein [2]: 36.4 nM
apparent KD of MS2 coat protein [1]: 33.9 nM
apparent KD of MS2 coat protein [3]: 44.5 nM

AAUAACAGAGGAUAUACUAUUUUAUGUGUUUAUUGUUUUAAACAUGAGGAUCACCCAUGUAGAAGGCUGAAUAA [JMF 16] (puzzle: Exclusion 2)
apparent KD of MS2 coat protein [1]: 26.8 nM

UUCAUGUGAGGAUAUAGUACUCCUUCUAUUAUUUUUGAGUAUUAGAAGGCACAUGAGGAUCACCCAUGUAGUAC [Ex4 - 3 - 39] (puzzle: Exclusion 4)
apparent KD of MS2 coat protein [1]: 24.6 nM

GUUGUUUAUGUAGGAUAUGCCUGGCGUGCCUAUGCAGAAGGACAUGAGGAUCACCCAUGUAUUGCGGUCUGCGUUCAGAUCGCU [salish99_ExNG1_r4_020] (Eterna round: R96, puzzle: Exclusion NG 1)
apparent KD of MS2 coat protein (input ligand: FMN 200 uM): 23.2 nM
apparent KD of MS2 coat protein [4]: 15.8 nM
apparent KD of MS2 coat protein (input ligand: none): 22 nM

GUCAUACAUGAGGAUCACCCAUGUAAGGAUAUGCUAGCGGUCGGAAGACUGACUGCUAGCAGAAGGUACAUGAU [Mat - Mod of JL D80] (puzzle: Exclusion 1)
apparent KD of MS2 coat protein [1]: 61.5 nM

UUGCGCUGAGGAUAUAUAACCGAUGACAUGAGGAUCACCCAUGUGGAUACAAGGGACUGAAUAGAAGGUAGCCAGA [Eternabot (L1) Solution 69] (Eterna round: R97, puzzle: Exclusion 5)
apparent KD of MS2 coat protein (input ligand: FMN 200 uM): 42.4 nM
apparent KD of MS2 coat protein (input ligand: none): 79.9 nM

UUUUAACAUGAGGAUCACCCAUGUGAGGAUAUCGAAAUUUAUAUUAAUAUUUAUUUAACGAGAAGGCACAUUUU [JMF 63] (puzzle: Exclusion 1)
apparent KD of MS2 coat protein [1]: 93.2 nM

CUUUAGCAGGUAGGAUAUACGAAGUGUCGGCGAGUAGAAGGACCUGCGAUCCACUUGAGGAUCACCCAAGUUCGCAGGAGAACA [Mutated MS2 EX1.10] (Eterna round: R96, puzzle: Exclusion NG 1)
apparent KD of MS2 coat protein (input ligand: FMN 200 uM): 103 nM
apparent KD of MS2 coat protein [4]: 35.6 nM
apparent KD of MS2 coat protein (input ligand: none): 50.8 nM

CUUUUGGGAGGAUAUUAGUAGUAAAUAAAUAAAAUUACUACUGAGAAGGCACAUGAGGAUCACCCAUGUUCCUC [salish99_ex4_r3_071] (puzzle: Exclusion 4)
apparent KD of MS2 coat protein [1]: 19.7 nM

AGAAGUAGGAACCGAUCCUACAUGAGGAUCACCCAUGUAGCAAGACGUGCACGCGAAGCUCGUCAGACUACCAGAUG [salish99_TOv1_r3_021] (puzzle: Sensor v3, turn-off variant 1)
apparent KD of MS2 coat protein [2]: 558 nM
apparent KD of MS2 coat protein [1]: 399 nM
apparent KD of MS2 coat protein [3]: 531 nM

UUCAGACAUGAGGAUCACCCAUGUGAGGAUAUGAUGCGAUCGUCGAAAGACGAUAGCAUCAGAAGGCACAAAUG [Fiskers Ex 1 - 18] (puzzle: Exclusion 1)
apparent KD of MS2 coat protein [1]: 114 nM

GCACGGAUGGUAGGAUAUCCUUGCGAUUAGCAAGGAGAAGGACCACAUGAGGAUCACCCAUGUACCUCAAUUAUCCUUCCGUGC [Eli exng1 - 023] (Eterna round: R96, puzzle: Exclusion NG 1)
apparent KD of MS2 coat protein (input ligand: FMN 200 uM): 12.7 nM
apparent KD of MS2 coat protein [4]: 9.18 nM
apparent KD of MS2 coat protein (input ligand: none): 15.8 nM

AGGAAGCAAGGAUAUACGAGGAGAAGGUGGAGAUUUAAAGGACAUGAGGAUCACCCAUGUAGAAGGUGCGAGAA [JR_Exclu2_Sub046] (puzzle: Exclusion 2)
apparent KD of MS2 coat protein [2]: 79.6 nM
apparent KD of MS2 coat protein [1]: 44.3 nM
apparent KD of MS2 coat protein [3]: 50.4 nM

UUUUUCGAACAAGCUUCGUACAUGAGGAUCACCCAUGUUUUUAGAUUUGAGUAGGUUUGUAUGGAAGUUCGUCUUAU [JR_SV3TOV1_Sub087] (puzzle: Sensor v3, turn-off variant 1)
apparent KD of MS2 coat protein [2]: 32.3 nM
apparent KD of MS2 coat protein [1]: 159 nM
apparent KD of MS2 coat protein [3]: 34.3 nM

UUUAAUUUUUUUUUUUUACAAGCUUUUUGCUCGUCUUAUACAUGAGGAUCACCCAUGUGGGUGGAGGAUAAAUUAUC [JMF 35] (puzzle: Sensor v3, turn-off variant 2)
apparent KD of MS2 coat protein [2]: 60.6 nM
apparent KD of MS2 coat protein [1]: 45.4 nM
apparent KD of MS2 coat protein [3]: 93.9 nM

UUUAUUUUGCAAGGAUAUGUUUAAUUUUAGUUUCCUUACACAUGAGGAUCACCCAUGUUAUACUUACAGAAGGUGCGUAAUUUU [Excl-NG2-LRO01] (Eterna round: R96, puzzle: Exclusion NG 2)
apparent KD of MS2 coat protein [4]: 101 nM

UUUUUGUGAGGAUAUCAGUAGUAAAAAAAUAAAAUUACUACUGAGAAGGCACAUGAGGAUCACCCAUGUUCUUU [salish99_ex4_r3_012] (puzzle: Exclusion 4)
apparent KD of MS2 coat protein [1]: 18.4 nM

GUCGUGCGGCUUUGCUGUGCGGGUACAUGAGGAUCACCCAUGUAGGAUAUGGUACGCUUUGCGUGCCAGAAGGGCGUGCGUUGG [salish99_ExNG3_r04_008] (Eterna round: R96, puzzle: Exclusion NG 3)
apparent KD of MS2 coat protein (input ligand: FMN 200 uM): 38.4 nM
apparent KD of MS2 coat protein [4]: 26.3 nM
apparent KD of MS2 coat protein (input ligand: none): 36.6 nM

UAUUAGUAAGGAUAUGAGGCGUAGUACGAAAGUACUACGUCUCAGAAGGUACAUGAGGAUCACCCAUGUUCAUU [Mod of Fisker 4 - Jieux - Exclusion 4] (Eterna round: R97, puzzle: Exclusion 4)
apparent KD of MS2 coat protein (input ligand: FMN 200 uM): 19.9 nM
apparent KD of MS2 coat protein (input ligand: none): 17.8 nM

UAUUAGCAAGCAAGAUCCCACAUGAGGAUCACCCAUGUGCUCGUCUUAUAAGGUACUGUGACGAAAGUCACGGUACC [Sensor 3, v1 - 83] (puzzle: Sensor v3, turn-off variant 1)
apparent KD of MS2 coat protein [2]: 36.8 nM
apparent KD of MS2 coat protein [1]: 1080 nM
apparent KD of MS2 coat protein [3]: 38 nM

AGGUCACAUGAGGAUCACCCAUGUCAGGAUAUCGUCACUGGAGCCUCGGCUCCAGUGACGAGAAGGGAUAAUUA [E1/8-A2] (Eterna round: R97, puzzle: Exclusion 1)
apparent KD of MS2 coat protein (input ligand: FMN 200 uM): 75.3 nM
apparent KD of MS2 coat protein (input ligand: none): 50.5 nM

AAAUUAGCAAGUAGGUCCGACAUGAGGAUCACCCAUGUUAUCUGAAAUAACGCUGCAUGAAAGUGCGCUCGUCUUAG [Sensor-V1 #9] (Eterna round: R97, puzzle: Sensor, turn-off variant 1)
apparent KD of MS2 coat protein (input ligand: FMN 200 uM): 65.3 nM
apparent KD of MS2 coat protein (input ligand: none): 73.9 nM

UUAUUGGUUGUGAGGAUAUCGGAUAGAUAGAUAUUCGAGAAGGCACAUGAGGAUCACCCAUGUGUGAUUGGAAA [JR_BMEx4_Sub047] (Eterna round: R97, puzzle: Brourd's mod of Exclusion 4)
apparent KD of MS2 coat protein (input ligand: FMN 200 uM): 276 nM
apparent KD of MS2 coat protein (input ligand: none): 27.9 nM

GUUUUCAGACGGAGAUCCUACAUGAGGAUCACCCAUGUCUCACAAGCUUUUUGCUCGUCUUAUUCUCCUCUGUUCUC [Elimod 41 - Jieux - Sensor, turn-off variant 1] (Eterna round: R97, puzzle: Sensor, turn-off variant 1)
apparent KD of MS2 coat protein (input ligand: FMN 200 uM): 23.8 nM
apparent KD of MS2 coat protein (input ligand: none): 26.1 nM
